Measured values taken from the supplement of paper PMC11316812.
± gives the standard deviation of the averaged measurements.

Legend:
[1] = system: MCF7; experiment: percentage of EdU-negative (G0-arrested) nuclei per well, 72 h; higher = more G0 arrest; conditions: reference: sequence is the full UniProt precursor, the tested protein was the secreted form or ectodomain
[2] = system: hTERT-HMEC; experiment: as above; conditions: reference: sequence is the full UniProt precursor, the tested protein was the secreted form or ectodomain
[3] = protein concentration 0.03125 µM
[4] = protein concentration 0.3125 µM
[5] = protein concentration 0.0225 µM
[6] = protein concentration 0.027515 µM
[7] = protein concentration 0.27515 µM
[8] = protein concentration 0.0161125 µM
[9] = protein concentration 0.161125 µM
[10] = protein concentration 0.0215 µM
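Further: secreted proteins added to cultured cells, EdU pulse at the end, nuclei found by Hoechst imaging, EdU status from nuclear versus surrounding ring intensity ratio, PBS as neutral control.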

MPWPLLLLLAVSGAQTTRPCFPGCQCEVETFGLFDSFSLTRVDCSGLGPHIMPVPIPLDTAHLDLSSNRLEMVNESVLAGPGYTTLAGLDLSHNLLTSISPTAFSRLRYLESLDLSHNGLTALPAESFTSSPLSDVNLSHNQLREVSVSAFTTHSQGRALHVDLSHNLIHRLVPHPTRAGLPAPTIQSLNLAWNRLHAVPNLRDLPLRYLSLDGNPLAVIGPGAFAGLGGLTHLSLASLQRLPELAPSGFRELPGLQVLDLSGNPKLNWAGAEVFSGLSSLQELDLSGTNLVPLPEALLLHLPALQSVSVGQDVRCRRLVREGTYPRRPGSSPKVALHCVDTRDSAARGPTIL [Q8WUA8]
percentage of EdU-negative [1, 3]: 28 ± 1.4% | percentage of EdU-negative [1, 4]: 29.1 ± 0.81% | percentage of EdU-negative [2, 3]: 5.33 ± 0.84% | percentage of EdU-negative [2, 4]: 5.25 ± 0.93%

MQAARGGAGRPERPGRPGRGPERERERPPGAGAASPCAAPGLPAGGATIHPGSPSAWPPRARAALRLWLGCVCFALVQADSPSAPVNVTVRHLKANSAVVSWDVLEDEVVIGFAISQQKKDVRMLRFIQEVNTTTRSCALWDLEEDTEYIVHVQAISIQGQSPASEPVLFKTPREAEKMASKNKDEVTMKEMGRNQQLRTGEVLIIVVVLFMWAGVIALFCRQYDIIKDNEPNNNKEKTKSASETSTPEHQGGGLLRSKI [Q8NAU1]
percentage of EdU-negative [1, 5]: 27.08 ± 0.2% | percentage of EdU-negative ([1]; protein concentration 0.225 µM): 25.3 ± 1.4% | percentage of EdU-negative [2, 5]: 5.26 ± 1.1% | percentage of EdU-negative ([2]; protein concentration 0.225 µM): 5.43 ± 0.82%

MQAAWLLGALVVPQLLGFGHGARGAEREWEGGWGGAQEEEREREALMLKHLQEALGLPAGRGDENPAGTVEGKEDWEMEEDQGEEEEEEATPTPSSGPSPSPTPEDIVTYILGRLAGLDAGLHQLHVRLHALDTRVVELTQGLRQLRNAAGDTRDAVQALQEAQGRAEREHGRLEGCLKGLRLGHKCFLLSRDFEAQAAAQARCTARGGSLAQPADRQQMEALTRYLRAALAPYNWPVWLGVHDRRAEGLYLFENGQRVSFFAWHRSPRPELGAQPSASPHPLSPDQPNGGTLENCVAQASDDGSWWDHDCQRRLYYVCEFPF [Q9Y240]
percentage of EdU-negative [1, 3]: 24.4 ± 0.81% | percentage of EdU-negative [1, 4]: 27.6 ± 1.3% | percentage of EdU-negative [2, 3]: 6.19 ± 0.7% | percentage of EdU-negative [2, 4]: 6.64 ± 1.2%

MQALVLLLCIGALLGHSSCQNPASPPEEGSPDPDSTGALVEEEDPFFKVPVNKLAAAVSNFGYDLYRVRSSTSPTTNVLLSPLSVATALSALSLGAEQRTESIIHRALYYDLISSPDIHGTYKELLDTVTAPQKNLKSASRIVFEKKLRIKSSFVAPLEKSYGTRPRVLTGNPRLDLQEINNWVQAQMKGKLARSTKEIPDEISILLLGVAHFKGQWVTKFDSRKTSLEDFYLDEERTVRVPMMSDPKAVLRYGLDSDLSCKIAQLPLTGSMSIIFFLPLKVTQNLTLIEESLTSEFIHDIDRELKTVQAVLTVPKLKLSYEGEVTKSLQEMKLQSLFDSPDFSKITGKPIKLTQVEHRAGFEWNEDGAGTTPSPGLQPAHLTFPLDYHLNQPFIFVLRDTDTGALLFIGKILDPRGP
percentage of EdU-negative [1, 6]: 26.5 ± 1.4% | percentage of EdU-negative [1, 7]: 28 ± 0.47% | percentage of EdU-negative [2, 6]: 5.35 ± 0.62% | percentage of EdU-negative [2, 7]: 9.19 ± 1.1%

MQAPGRGPLGLRLMMPGRRGALREPGGCGSCLGVALALLLLLLPACCPVRAQNDTEPIVLEGKCLVVCDSSPSADGAVTSSLGISVRSGSAKVAFSATRSTNHEPSEMSNRTMTIYFDQVLVNIGNHFDLASSIFVAPRKGIYSFSFHVVKVYNRQTIQVSLMQNGYPVISAFAGDQDVTREAASNGVLLLMEREDKVHLKLERGNLMGGWKYSTFSGFLVFPL [Q8IUK8]
percentage of EdU-negative [1, 5]: 26.91 ± 0.25% | percentage of EdU-negative ([1]; protein concentration 0.225 µM): 26.76 ± 0.11% | percentage of EdU-negative [2, 5]: 4.67 ± 0.45% | percentage of EdU-negative ([2]; protein concentration 0.225 µM): 5.29 ± 0.93%

MQAQQYQQQRRKFAAAFLAFIFILAAVDTAEAGKKEKPEKKVKKSDCGEWQWSVCVPTSGDCGLGTREGTRTGAECKQTMKTQRCKIPCNWKKQFGAECKYQFQAWGECDLNTALKTRTGSLKRALHNAECQKTVTISKPCGKLTKPKPQAESKKKKKEGKKQEKMLD
percentage of EdU-negative [1, 8]: 25.8 ± 1.2% | percentage of EdU-negative [1, 9]: 30.5 ± 1.6% | percentage of EdU-negative [2, 8]: 4.79 ± 0.99% | percentage of EdU-negative [2, 9]: 5.12 ± 0.3%

MQCLLLLPFLLLGTVSALHLENDAPHLESLETQADLGQDLDSSKEQERDLALTEEVIQAEGEEVKASACQDNFEDEEAMESDPAALDKDFQCPREEDIVEVQGSPRCKICRYLLVRTPKTFAEAQNVCSRCYGGNLVSIHDFNFNYRIQCCTSTVNQAQVWIGGNLRGWFLWKRFCWTDGSHWNFAYWSPGQPGNGQGSCVALCTKGGYWRRAQCDKQLPFVCSF [Q9Y2Y8]
percentage of EdU-negative [1, 10]: 28.7 ± 1.2% | percentage of EdU-negative ([1]; protein concentration 0.215 µM): 32.1 ± 2.4% | percentage of EdU-negative [2, 10]: 5.28 ± 1.6% | percentage of EdU-negative ([2]; protein concentration 0.215 µM): 8.49 ± 1.7%

MQCRLPRGLAGALLTLLCMGLLCLRYHLNLSPQRVQGTPELSQPNPGPPKLQLHDVFIAVKTTRAFHRLRLELLLDTWVSRTREQTFVFTDSPDKGLQERLGSHLVVTNCSAEHSHPALSCKMAAEFDTFLASGLRWFCHVDDDNYVNPRALLQLLRAFPLARDVYVGRPSLNRPIHASEPQPHNRTRLVQFWFATGGAGFCINRKLALKMAPWASGSRFMDTSALIRLPDDCTMGYIIECKLGGRLQPSPLFHSHLETLQLLRTAQLPEQVTLSYGVFEGKLNVIKLQGPFSPEEDPSRFRSLHCLLYPDTPWCPQLGAR
percentage of EdU-negative [1, 5]: 25.3 ± 2.3% | percentage of EdU-negative ([1]; protein concentration 0.225 µM): 29.9 ± 2.4% | percentage of EdU-negative [2, 5]: 5.18 ± 0.59% | percentage of EdU-negative ([2]; protein concentration 0.225 µM): 11.6 ± 0.88%

MQCWQQPFLRFLQQPFFLATASLAGSSSSFNVLIPKRDEDGDGEGPGDVTAGVSRAAGSPSGWEAPWVQQPRCCRRATPVCCAGQGPPRSLQQGGSEVLLGQLCSPEPDWLPSSGPKVAKQVFQVAAELLQHPEHFVPSSVPEGCVHKPGSTCDGSLKGRAYPSCVPKRDPEHSREESHPLSG [Q6UXR6]
percentage of EdU-negative [1, 5]: 26.15 ± 0.12% | percentage of EdU-negative ([1]; protein concentration 0.225 µM): 26.1 ± 0.63% | percentage of EdU-negative [2, 5]: 4.87 ± 0.51% | percentage of EdU-negative ([2]; protein concentration 0.225 µM): 4.95 ± 1%
